Patent US20120277164A1 (IMPERIAL INNOVATIONS, published 2012)
* marks the point of attachment. Fmoc = O=C(OCC1c2ccccc2-c2ccccc21)*; Cbz = O=C(OCc1ccccc1)*; Bz = O=C(c1ccccc1)*; βAla = NCCC(=O)O

T1: Gadd45β/MKK7 complex (biotin-hGadd45β with coated GST-MKK7, ELISA format) (human) (UniProt O75293)
T1 sequence (biotinylated (sites not stated), looked up) 1: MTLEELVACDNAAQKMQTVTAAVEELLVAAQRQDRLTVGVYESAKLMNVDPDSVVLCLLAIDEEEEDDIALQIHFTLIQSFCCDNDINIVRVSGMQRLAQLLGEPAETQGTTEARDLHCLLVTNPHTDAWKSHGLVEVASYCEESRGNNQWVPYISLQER
T1 sequence (biotinylated (sites not stated), looked up) 2: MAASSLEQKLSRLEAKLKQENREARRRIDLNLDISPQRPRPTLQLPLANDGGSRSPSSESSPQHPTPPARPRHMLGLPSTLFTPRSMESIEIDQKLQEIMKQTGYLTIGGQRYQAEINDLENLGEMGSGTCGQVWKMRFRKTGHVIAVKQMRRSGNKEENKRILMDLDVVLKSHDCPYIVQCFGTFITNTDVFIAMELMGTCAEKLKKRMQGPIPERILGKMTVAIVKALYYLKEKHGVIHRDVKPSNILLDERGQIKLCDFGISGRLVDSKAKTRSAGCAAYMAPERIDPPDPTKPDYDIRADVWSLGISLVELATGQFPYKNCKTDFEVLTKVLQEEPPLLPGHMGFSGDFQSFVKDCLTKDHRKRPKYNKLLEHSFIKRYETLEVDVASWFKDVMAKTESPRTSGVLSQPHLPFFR

T2: Gadd45β/MKK7 complex (biotin-hGadd45β with coated GST-MKK7, ELISA format) (human, UniProt O75293 1-160; O14733 1-419, biotinylated (sites not given))
T2 construct: not shown: glutathione S-transferase (GST) fusion partner
T2 sequence (looked up) 1: T1 sequence (biotinylated (sites not stated), looked up) 1
T2 sequence (looked up) 2: T1 sequence (biotinylated (sites not stated), looked up) 2

B1: Ac-YERFLys(Z)-NH2 (peptide)
peptide: Ac-YERFK(Cbz)-NH2
SMILES: CC(=O)N[C@@H](Cc1ccc(O)cc1)C(=O)N[C@@H](CCC(=O)O)C(=O)N[C@@H](CCCNC(=N)N)C(=O)N[C@@H](Cc1ccccc1)C(=O)N[C@@H](CCCCNC(=O)OCc1ccccc1)C(N)=O
B2: Ac-YDHFLys(Z)-NH2 (peptide)
peptide: Ac-YDHFK(Cbz)-NH2
SMILES: CC(=O)N[C@@H](Cc1ccc(O)cc1)C(=O)N[C@@H](CC(=O)O)C(=O)N[C@@H](Cc1c[nH]cn1)C(=O)N[C@@H](Cc1ccccc1)C(=O)N[C@@H](CCCCNC(=O)OCc1ccccc1)C(N)=O
B3: Ac-YDHQLys(Z)-NH2 (peptide)
peptide: Ac-YDHQK(Cbz)-NH2
SMILES: CC(=O)N[C@@H](Cc1ccc(O)cc1)C(=O)N[C@@H](CC(=O)O)C(=O)N[C@@H](Cc1c[nH]cn1)C(=O)N[C@@H](CCC(N)=O)C(=O)N[C@@H](CCCCNC(=O)OCc1ccccc1)C(N)=O
B4: Fmoc(βAla)2-YDHR-NH2 (peptide)
peptide: {Fmoc-βAla-βAla}-YDHR-NH2
SMILES: N=C(N)NCCC[C@H](NC(=O)[C@H](Cc1c[nH]cn1)NC(=O)[C@H](CC(=O)O)NC(=O)[C@H](Cc1ccc(O)cc1)NC(=O)CCNC(=O)CCNC(=O)OCC1c2ccccc2-c2ccccc21)C(N)=O
B5: Fmoc(βAla)2-YDHA-NH2 (peptide)
peptide: {Fmoc-βAla-βAla}-YDHA-NH2
SMILES: C[C@H](NC(=O)[C@H](Cc1c[nH]cn1)NC(=O)[C@H](CC(=O)O)NC(=O)[C@H](Cc1ccc(O)cc1)NC(=O)CCNC(=O)CCNC(=O)OCC1c2ccccc2-c2ccccc21)C(N)=O
B6: Fmoc(βAla)2-YDHC-NH2 (peptide)
peptide: {Fmoc-βAla-βAla}-YDHC-NH2
SMILES: NC(=O)[C@H](CS)NC(=O)[C@H](Cc1c[nH]cn1)NC(=O)[C@H](CC(=O)O)NC(=O)[C@H](Cc1ccc(O)cc1)NC(=O)CCNC(=O)CCNC(=O)OCC1c2ccccc2-c2ccccc21
B7: Fmoc(βAla)2-YDHD-NH2 (peptide)
peptide: {Fmoc-βAla-βAla}-YDHD-NH2
SMILES: NC(=O)[C@H](CC(=O)O)NC(=O)[C@H](Cc1c[nH]cn1)NC(=O)[C@H](CC(=O)O)NC(=O)[C@H](Cc1ccc(O)cc1)NC(=O)CCNC(=O)CCNC(=O)OCC1c2ccccc2-c2ccccc21
B8: Fmoc(βAla)2-YDHH-NH2 (peptide)
peptide: {Fmoc-βAla-βAla}-YDHH-NH2
SMILES: NC(=O)[C@H](Cc1c[nH]cn1)NC(=O)[C@H](Cc1c[nH]cn1)NC(=O)[C@H](CC(=O)O)NC(=O)[C@H](Cc1ccc(O)cc1)NC(=O)CCNC(=O)CCNC(=O)OCC1c2ccccc2-c2ccccc21
B9: Fmoc(βAla)2-YDHL-NH2 (peptide)
peptide: {Fmoc-βAla-βAla}-YDHL-NH2
SMILES: CC(C)C[C@H](NC(=O)[C@H](Cc1c[nH]cn1)NC(=O)[C@H](CC(=O)O)NC(=O)[C@H](Cc1ccc(O)cc1)NC(=O)CCNC(=O)CCNC(=O)OCC1c2ccccc2-c2ccccc21)C(N)=O
B10: Fmoc(βAla)2-YDHM-NH2 (peptide)
peptide: {Fmoc-βAla-βAla}-YDHM-NH2
SMILES: CSCC[C@H](NC(=O)[C@H](Cc1c[nH]cn1)NC(=O)[C@H](CC(=O)O)NC(=O)[C@H](Cc1ccc(O)cc1)NC(=O)CCNC(=O)CCNC(=O)OCC1c2ccccc2-c2ccccc21)C(N)=O
B11: Fmoc(βAla)2-YDHP-NH2 (peptide)
peptide: {Fmoc-βAla-βAla}-YDHP-NH2
SMILES: NC(=O)[C@@H]1CCCN1C(=O)[C@H](Cc1c[nH]cn1)NC(=O)[C@H](CC(=O)O)NC(=O)[C@H](Cc1ccc(O)cc1)NC(=O)CCNC(=O)CCNC(=O)OCC1c2ccccc2-c2ccccc21
B12: Fmoc(βAla)2-YDHS-NH2 (peptide)
peptide: {Fmoc-βAla-βAla}-YDHS-NH2
SMILES: NC(=O)[C@H](CO)NC(=O)[C@H](Cc1c[nH]cn1)NC(=O)[C@H](CC(=O)O)NC(=O)[C@H](Cc1ccc(O)cc1)NC(=O)CCNC(=O)CCNC(=O)OCC1c2ccccc2-c2ccccc21
B13: Fmoc(βAla)2-YDHY-NH2 (peptide)
peptide: {Fmoc-βAla-βAla}-YDHY-NH2
SMILES: NC(=O)[C@H](Cc1ccc(O)cc1)NC(=O)[C@H](Cc1c[nH]cn1)NC(=O)[C@H](CC(=O)O)NC(=O)[C@H](Cc1ccc(O)cc1)NC(=O)CCNC(=O)CCNC(=O)OCC1c2ccccc2-c2ccccc21

Experiments:
[1] = biological target: T1, Gadd45β/MKK7 complex (biotin-hGadd45β with coated GST-MKK7, ELISA format) (human); assay: competition ELISA; coated GST-MKK7, biotin-hGadd45β; single dose
[2] = biological target: T1, Gadd45β/MKK7 complex (biotin-hGadd45β with coated GST-MKK7, ELISA format) (human); assay: competition ELISA; coated GST-MKK7 42 nM, biotin-hGadd45β 21 nM
[3] = biological target: T1, Gadd45β/MKK7 complex (biotin-hGadd45β with coated GST-MKK7, ELISA format) (human); assay: derived from the in vitro ELISA competition IC50 (Gadd45β/MKK7)
[4] = biological target: T1, Gadd45β/MKK7 complex (biotin-hGadd45β with coated GST-MKK7, ELISA format) (human); assay: competition ELISA; coated MKK7 42 nM, biotin-hGadd45β 21 nM, competitor 42 nM nominal
[5] = biological target: T2, Gadd45β/MKK7 complex (biotin-hGadd45β …); assay: as above
[6] = biological target: T2, Gadd45β/MKK7 complex (biotin-hGadd45β …); assay: competition ELISA; coated GST-MKK7, biotin-hGadd45β; single dose
[7] = biological target: T2, Gadd45β/MKK7 complex (biotin-hGadd45β …); assay: as above; remark: listed apart in the source

| Molecule | % Inhibition of Gadd45β-MKK7 binding [5] [%] | % Inhibition of Gadd45β-MKK7 binding [6] [%] | other results |
| --- | --- | --- | --- |
| Fmoc-YDFQ-NH2 |  |  | % Inhibition of Gadd45β-MKK7 binding [1]: 19% |
| mDTP3 (Ac-D-Tyr-D-Arg-D-Phe-NH2) (peptide) |  |  | IC50 [2]: 0.157 nM; Ligand Efficiency [3]: -0.24 |
| Fmoc(βAla)2-YDHQ-NH2 as printed in row r19 of Table I |  |  | % Inhibition of Gadd45β-MKK7 binding [4]: 26% |
| Bz-YDHQ-NH2 [Benzoic acid-YDHQ-NH2] |  |  | % Inhibition of Gadd45β-MKK7 binding [1]: 1% |
| {3‑OH‑4MeO‑benzoic acid}-YDHQ-NH2 (not fully specified) [3-OH-4MeO-Benzoid acid-YDHQ-NH2] |  |  | % Inhibition of Gadd45β-MKK7 binding [1]: 7% |
| B1 |  |  | % Inhibition of Gadd45β-MKK7 binding [1]: 6% |
| B2 |  |  | % Inhibition of Gadd45β-MKK7 binding [1]: 8% |
| B3 |  |  | % Inhibition of Gadd45β-MKK7 binding [1]: 2% |
| B4 |  |  | % Inhibition of Gadd45β-MKK7 binding [4]: 2% |
| Ac-YDHQ-NH2 [Ac-YDHQ-NH2] |  |  | % Inhibition of Gadd45β-MKK7 binding [1]: 99% |
| Ac-AERF-NH2 [Ac-AERF-NH2] |  |  | % Inhibition of Gadd45β-MKK7 binding [1]: 7% |
| Cbz-YD(OMe)HQ-NH2 [Z-YD(OMe)HQ-NH2] |  |  | % Inhibition of Gadd45β-MKK7 binding [1]: 3% |
| {Fmoc-βAla-βAla}-YDHF-NH2 (also called Fmoc-LTP1) [Fmoc(βAla)2-YDHF-NH2] | 99 |  |  |
| Ac-WERW-NH2 [Ac-WERW-NH2] |  | 69 |  |
| Ac-YDHW-NH2 [Ac-YDHW-NH2] |  | 58 |  |
| Ac-YDKF-NH2 [Ac-YDKF-NH2] |  | 35 |  |
| Ac-YDKW-NH2 [Ac-YDKW-NH2] |  | 23 |  |

| Molecule | % Inhibition of Gadd45β-MKK7 binding [5] [%] | % Inhibition of Gadd45β-MKK7 binding [6] [%] | other results |
| --- | --- | --- | --- |
| Ac-YDRF-NH2 [Ac-YDRF-NH2] |  | 45 | % Inhibition of Gadd45β-MKK7 binding [7]: 19% |
| Ac-YDRW-NH2 [Ac-YDRW-NH2] |  | 43 |  |
| Ac-YEHF-NH2 [Ac-YEHF-NH2] |  | 52 | % Inhibition of Gadd45β-MKK7 binding [7]: 23% |
| Ac-YEHW-NH2 [Ac-YEHW-NH2] |  | 64 |  |
| Ac-YEKF-NH2 [Ac-YEKF-NH2] |  | 64 |  |
| Ac-YEKW-NH2 [Ac-YEKW-NH2] |  | 27 |  |
| Ac-YERW-NH2 [Ac-YERW-NH2] |  | 59 |  |
| B5 | 15 |  |  |
| B6 | 44 |  |  |
| B7 | 0 |  |  |
| B8 | 40 |  |  |
| B9 | 33 |  |  |
| B10 | 14 |  |  |
| B11 | 16 |  |  |
| {Fmoc-βAla-βAla}-YDHQ-NH2 [Fmoc(βAla)2-YDHQ-NH2] | 0 |  |  |
| B12 | 0 |  |  |
| B13 | 63 |  |  |
